{"source": "paper PMC5454392", "about": "“Selective BET bromodomain inhibition as an antifungal therapeutic strategy” (Nature Communications, 2017)", "key": {"CaBdf1 BD1": {"target": "T1, CaBdf1 BD1 (Candida albicans, UniProt Q5A4W8)", "T1 construct": "made in house; host or cells: E. coli BL21(DE3)", "T1 sequence (Q5A4W8 whole entry, looked up)": "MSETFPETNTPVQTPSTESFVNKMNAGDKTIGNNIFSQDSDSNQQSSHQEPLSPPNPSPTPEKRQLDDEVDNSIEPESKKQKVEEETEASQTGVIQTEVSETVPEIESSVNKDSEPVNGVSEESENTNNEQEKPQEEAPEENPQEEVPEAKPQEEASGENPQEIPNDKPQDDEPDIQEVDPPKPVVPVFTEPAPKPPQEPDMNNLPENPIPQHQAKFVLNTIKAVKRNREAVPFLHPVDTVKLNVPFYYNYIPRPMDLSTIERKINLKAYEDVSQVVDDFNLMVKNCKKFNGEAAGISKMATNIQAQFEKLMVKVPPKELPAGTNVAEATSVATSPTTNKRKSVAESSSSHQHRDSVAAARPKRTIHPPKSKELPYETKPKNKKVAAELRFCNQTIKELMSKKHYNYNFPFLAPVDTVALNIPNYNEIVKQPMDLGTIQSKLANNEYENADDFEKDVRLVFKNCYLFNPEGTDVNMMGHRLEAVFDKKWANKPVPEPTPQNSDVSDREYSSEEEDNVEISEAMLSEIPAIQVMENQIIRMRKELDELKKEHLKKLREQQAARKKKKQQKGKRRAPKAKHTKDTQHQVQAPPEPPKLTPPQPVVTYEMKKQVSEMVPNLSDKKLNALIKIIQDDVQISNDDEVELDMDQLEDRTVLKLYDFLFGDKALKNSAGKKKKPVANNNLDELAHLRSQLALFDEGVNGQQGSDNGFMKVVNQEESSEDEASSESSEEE", "type": "binding", "conditions": "wild-type BD1; for CaBdf1 BD1 Normalized (0 to 100%) WT: normalized array signal; for CaBdf1 BD1 Raw data WT: peptide array signal", "experimental": "(§1) In short, arrays were blocked and incubated with 1 μM of purified CaBdf1 BD1 or BD2. Arrays were incubated with recombinant BDs for 2 h at 4 °C in binding buffer (Tris-HCl 50 mM pH 7.4, NP-40 0.1%, NaCl 150 mM, glycerol 10%). […] Assays were performed in duplicate."}, "CaBdf1 BD2": {"target": "T2, CaBdf1 BD2 (Candida albicans, UniProt Q5A4W8)", "T2 construct": "made in house; host or cells: E. coli BL21(DE3)", "T2 sequence (Q5A4W8 whole entry, looked up)": "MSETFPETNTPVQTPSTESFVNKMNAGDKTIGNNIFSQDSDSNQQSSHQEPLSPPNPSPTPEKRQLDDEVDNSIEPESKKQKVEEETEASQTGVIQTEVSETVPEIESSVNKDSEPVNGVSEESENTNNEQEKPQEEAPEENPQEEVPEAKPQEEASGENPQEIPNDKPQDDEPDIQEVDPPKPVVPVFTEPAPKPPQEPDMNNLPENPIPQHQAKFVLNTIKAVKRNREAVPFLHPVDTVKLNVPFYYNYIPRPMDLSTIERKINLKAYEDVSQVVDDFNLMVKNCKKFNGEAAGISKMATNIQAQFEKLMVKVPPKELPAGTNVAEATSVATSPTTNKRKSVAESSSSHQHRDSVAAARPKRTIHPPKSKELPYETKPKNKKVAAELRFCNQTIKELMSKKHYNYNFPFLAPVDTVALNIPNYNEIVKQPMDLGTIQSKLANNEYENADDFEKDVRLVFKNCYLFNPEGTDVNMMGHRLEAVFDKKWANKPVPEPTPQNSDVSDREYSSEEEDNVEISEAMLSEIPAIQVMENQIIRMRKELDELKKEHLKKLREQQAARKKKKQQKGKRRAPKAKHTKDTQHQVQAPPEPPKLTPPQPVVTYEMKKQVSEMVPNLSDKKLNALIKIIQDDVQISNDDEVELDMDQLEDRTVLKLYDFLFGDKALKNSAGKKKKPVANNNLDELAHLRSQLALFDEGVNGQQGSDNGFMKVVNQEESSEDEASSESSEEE", "type": "binding", "conditions": "wild-type BD2; for CaBdf1 BD2 Normalized (0 to 100%) WT: normalized array signal; for CaBdf1 BD2 Raw data WT: peptide array signal", "experimental": "as §1"}, "CaBdf1 BD2 Y425F": {"target": "T3, CaBdf1 BD2 Y425F (Candida albicans, UniProt Q5A4W8, Y425F)", "T3 construct": "made in house; host or cells: E. coli BL21(DE3), inferred from the wild-type GST construct", "T3 sequence (Q5A4W8 361-501 Y425F)": "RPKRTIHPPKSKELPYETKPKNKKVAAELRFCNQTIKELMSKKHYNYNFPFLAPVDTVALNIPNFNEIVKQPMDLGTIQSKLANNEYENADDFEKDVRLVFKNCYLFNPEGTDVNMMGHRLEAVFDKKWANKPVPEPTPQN", "test": "Histone peptide microarray binding, YF mutant", "design": "species or system C. albicans", "conditions": "YF mutant BD2; for CaBdf1 BD2 Normalized (0 to 100%) YF mutant: normalized array signal", "experimental": "as §1, with “duplicate. Images were acquired on a Bio-Rad ChemiDoc XRS Imaging machine and data were quantified using the array analyser software provided by Active Motif.” for “duplicate.”"}, "CaBdf1 BD1 Y248F": {"target": "T4, CaBdf1 BD1 Y248F (Candida albicans, UniProt Q5A4W8, Y248F)", "T4 construct": "made in house; host or cells: E. coli BL21(DE3), inferred from the wild-type GST construct", "T4 sequence (Q5A4W8 193-327 Y248F)": "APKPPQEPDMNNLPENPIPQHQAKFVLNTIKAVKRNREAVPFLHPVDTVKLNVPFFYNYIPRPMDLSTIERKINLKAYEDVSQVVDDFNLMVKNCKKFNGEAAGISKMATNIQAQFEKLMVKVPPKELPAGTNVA", "test": "Histone peptide microarray binding, YF mutant", "design": "species or system C. albicans", "conditions": "YF mutant BD1; for CaBdf1 BD1 Normalized (0 to 100%) YF mutant: normalized array signal; for CaBdf1 BD1 Raw data YF mutant: peptide array signal", "experimental": "as §1, with “duplicate. Images were acquired on a Bio-Rad ChemiDoc XRS Imaging machine and data were quantified using the array analyser software provided by Active Motif.” for “duplicate.”"}, "[1]": {"target": "T5, CaBdf1 BD2 (GST-tagged, wild-type) (Candida albicans (strain SC5314 / ATCC …, UniProt Q5A4W8))", "T5 chain": "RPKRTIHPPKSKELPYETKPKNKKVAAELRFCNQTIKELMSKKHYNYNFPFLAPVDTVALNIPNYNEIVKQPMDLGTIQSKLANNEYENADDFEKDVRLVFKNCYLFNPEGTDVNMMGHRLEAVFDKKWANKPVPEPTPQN", "test": "histone peptide array (Active Motif MODified), 1 uM GST-tagged bromodomain, anti-GST detection, normalized mean intensity"}, "[2]": {"target": "T6, CaBdf1 BD1 (GST-tagged, wild-type) (Candida albicans (strain SC5314 / ATCC …, UniProt Q5A4W8))", "T6 chain": "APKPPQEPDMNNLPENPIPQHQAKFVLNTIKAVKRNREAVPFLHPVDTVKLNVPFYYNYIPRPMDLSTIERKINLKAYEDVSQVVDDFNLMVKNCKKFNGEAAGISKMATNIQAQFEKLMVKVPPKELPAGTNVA", "test": "histone peptide array (Active Motif MODified), 1 uM GST-tagged bromodomain, anti-GST detection, normalized mean intensity"}}, "note": "Read-outs that look alike come from different tables or passages of the source. Square brackets hold non-standard residues; d marks the D form. Ends that are not written are not given here. Arg(Me2a) = CN(C)C(=N)NCCC[C@H](N)C(=O)O; pT = C[C@@H](OP(=O)(O)O)[C@H](N)C(=O)O; Me2a = not defined here;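 on CaBdf1 BD1 Normalized (0 to 100%) WT: normalized to spotted c-myc peptide positive control signal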;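 on CaBdf1 BD1 Normalized (0 to 100%) YF mutant: normalized to spotted c-myc peptide positive control signal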;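 on CaBdf1 BD2 Normalized (0 to 100%) WT: normalized to spotted c-myc peptide positive control signal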;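 on CaBdf1 BD2 Normalized (0 to 100%) YF mutant: normalized to spotted c-myc peptide positive control signal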"}
{"molecule": "A Rme2s T Kme1 Q T A R Kme1 S T G G K A P R K Q", "values": [{"measurement": "CaBdf1 BD1 Normalized (0 to 100%) WT", "setting": "CaBdf1 BD1", "result": 0.29, "unit": "%"}, {"measurement": "CaBdf1 BD1 Raw data WT", "setting": "CaBdf1 BD1; first of two raw-data columns", "result": 0.003741}, {"measurement": "CaBdf1 BD1 Raw data WT", "setting": "CaBdf1 BD1", "result": 0.004276}, {"measurement": "CaBdf1 BD2 Normalized (0 to 100%) WT", "setting": "CaBdf1 BD2", "result": 0.518, "unit": "%"}, {"measurement": "CaBdf1 BD2 Raw data WT", "setting": "CaBdf1 BD2; first of two raw-data columns", "result": 0.01579}, {"measurement": "CaBdf1 BD2 Raw data WT", "setting": "CaBdf1 BD2", "result": 0.005491}, {"measurement": "CaBdf1 BD2 Normalized (0 to 100%) YF mutant", "setting": "CaBdf1 BD2 Y425F", "result": 0.342, "unit": "%"}, {"measurement": "CaBdf1 BD2 Raw data YF mutant", "setting": "CaBdf1 BD2 Y425F; peptide array signal, first of two raw-data columns", "result": 0.003398}, {"measurement": "CaBdf1 BD1 Normalized (0 to 100%) YF mutant", "setting": "CaBdf1 BD1 Y248F", "result": 0.658, "unit": "%"}, {"measurement": "CaBdf1 BD1 Raw data YF mutant", "setting": "CaBdf1 BD1 Y248F; first of two raw-data columns", "result": 0.006516}, {"measurement": "CaBdf1 BD1 Raw data YF mutant", "setting": "CaBdf1 BD1 Y248F", "result": 0.005144}]}
{"molecule": "A Rme2s T Kme1 Q T A R Kme3 S T G G K A P R K Q", "values": [{"measurement": "CaBdf1 BD1 Normalized (0 to 100%) WT", "setting": "CaBdf1 BD1", "result": 0.326, "unit": "%"}, {"measurement": "CaBdf1 BD1 Raw data WT", "setting": "CaBdf1 BD1; first of two raw-data columns", "result": 0.00481}, {"measurement": "CaBdf1 BD1 Raw data WT", "setting": "CaBdf1 BD1", "result": 0.003741}, {"measurement": "CaBdf1 BD2 Normalized (0 to 100%) WT", "setting": "CaBdf1 BD2", "result": 0.259, "unit": "%"}, {"measurement": "CaBdf1 BD2 Raw data WT", "setting": "CaBdf1 BD2; first of two raw-data columns", "result": 0.0151}, {"measurement": "CaBdf1 BD2 Raw data WT", "setting": "CaBdf1 BD2", "result": 0.001373}, {"measurement": "CaBdf1 BD2 Normalized (0 to 100%) YF mutant", "setting": "CaBdf1 BD2 Y425F", "result": 0.195, "unit": "%"}, {"measurement": "CaBdf1 BD1 Normalized (0 to 100%) YF mutant", "setting": "CaBdf1 BD1 Y248F", "result": 0.727, "unit": "%"}, {"measurement": "CaBdf1 BD1 Raw data YF mutant", "setting": "CaBdf1 BD1 Y248F; first of two raw-data columns", "result": 0.007202}, {"measurement": "CaBdf1 BD1 Raw data YF mutant", "setting": "CaBdf1 BD1 Y248F", "result": 0.002743}]}
{"molecule": "AR(Me2s)TK(Me3)QTAR(Me2a)K(Ac)STGGKAPRKQ (reading uncertain)", "values": [{"measurement": "binding score", "setting": "[1]", "result": 0.0037}, {"measurement": "binding score", "setting": "[2]", "result": 0.0406}]}
{"molecule": "ARTKQTARKSTGGKAPRKQ (A Rme2a T Kme1 Q T A Rme2a Kac S T G G K A P R K Q)", "values": [{"measurement": "binding score", "setting": "[1]", "result": 0.00333}, {"measurement": "binding score", "setting": "[2]", "result": 0.0254}]}
{"molecule": "A[Arg(Me2a)]TKQTARKSTGGKAPRKQ", "values": [{"measurement": "binding score", "setting": "[1]", "result": 0.00296}, {"measurement": "binding score", "setting": "[2]", "result": 0.000363}]}
{"molecule": "AR(Me2a)TK(Me3)QTARK(Me2)STGGKAPRKQ (reading uncertain)", "values": [{"measurement": "binding score", "setting": "[1]", "result": 0.00296}, {"measurement": "binding score", "setting": "[2]", "result": 0.00145}]}
{"molecule": "AR(Me2a)[pT]K(Me)QTARKSTGGKAPRKQ (reading uncertain)", "values": [{"measurement": "binding score", "setting": "[1]", "result": 0.00037}, {"measurement": "binding score", "setting": "[2]", "result": 0.00471}]}
{"molecule": "A[Arg(Me2a)]TK(Ac)QTARKSTGGKAPRKQ", "values": [{"measurement": "binding score", "setting": "[1]", "result": 0.00148}, {"measurement": "binding score", "setting": "[2]", "result": 0.00363}]}
{"molecule": "ARTKQTARKSTGGKAPRKQ (A R T K Q T A Rme2s Kme3 S pT G G K A P R K Q)", "values": [{"measurement": "binding score", "setting": "[1]", "result": 0.0037}, {"measurement": "binding score", "setting": "[2]", "result": 0.00399}]}
